Patent publication US20200264182A1, “METHOD FOR DETECTING PROSTATE CANCER” (J-OIL MILLS, INC., priority 2017, published 2020)

Experiments:
serum fucosylated PSA = assay: Sandwich ELISA, anti-PSA antibody and biotin-labeled lectin; format: binding, human
Procedure: The anti-PSA antibody from which sugar chains had been removed was diluted to 5 μg/mL with PBS. 25 μL of this diluted solution was added to each well of an ELISA plate and allowed to stand at 37° C. for 12 hours, and then the additive solution was discarded.
150 μL of PBS containing 0.05% Tween 20 (product name: polyoxyethylene sorbitan monolaurate, from Nacalai Tesque, Inc.) was added to each well, and then the additive solution was discarded. This manipulation was repeated three times in total.
25 μL of 1% BSA/PBS was added to each well and allowed to stand at 37° C. for 1 hour, and then the additive solution was discarded.
150 μL of PBS containing 0.05% Tween 20 was added to each well, and then the additive solution was discarded. This manipulation was repeated three times in total.
To graph a calibration curve, 25 μL of the fucosylated PSA reference standard diluted with 1% BSA/PBS to a concentration of 0 to 200 ng/mL was added to each well and allowed to stand at room temperature for 1 hour, and then the additive solution was discarded. In addition, to detect the fucosylated PSA in the serum of the subject by the lectin, 25 μL of serum of “Healthy 1” and “Prostate cancer 4” 2-fold diluted with PBS was added to each well and allowed to stand at room temperature for 1 hour, and then the additive solution was discarded.
In Reference Example 1, 25 μL of a biotin-labeled PhoSL diluted to 0.1 μg/mL with 0.1% BSA/PBS (pH 7.4) was added to each well and allowed to stand at 4° C. for 30 minutes, and then the additive solution was discarded. In Example 1, 25 μL of a biotin-labeled PhoSL diluted to 0.1 μg/mL with 0.1% BSA/10-fold diluted PBS+glycine-NaOH (pH 9.6) was added to each well and allowed to stand at 4° C. for 30 minutes, and then the additive solution was discarded.
25 μL of a horseradish peroxidase (HRP)-labeled streptavidin solution (from Vector Laboratories, Inc., concentration: 0.4 μg/mL, in 1% BSA/PBS) was added to each well and allowed to stand at room temperature for 30 minutes, and then the additive solution was discarded.
25 μL of chromogenic substrate for HRP (product name: TMB, from Kirkegaard & Perry Laboratories, Inc.) was added to each well and allowed to stand at room temperature for 10 minutes.
25 μL of 1M phosphoric acid was added to terminate the reaction.
Absorbance (Ab) at 450 nm and 630 nm was measured using a plate reader, and a measurement (Ab450-630) was obtained.
A calibration curve was graphed by plotting signals (reaction values, Ab450-630) of the fucosylated PSA reference standard with the biotin-labeled PhoSL. A Signal (Ab450-630) of the biotin-labeled PhoSL corresponding to the fucosylated PSA concentration of 10 ng/mL was defined as 10 U/mL.
The signals of biotin-labeled PhoSL (Ab450-630) for the serum fucosylated PSA in the subject samples A were assigned to the calibration curve to calculate reaction values (unit: U/mL).
The PhoSL reaction values for the subject samples A were measured by the same operation as in Example 1. From the PhoSL reaction values, an average value and a median value were determined. Furthermore, a standard cutoff value (89.7 U/mL) was used to determine a detection rate (positive rate) of the prostate cancer patients, and a false detection rate (false positive rate) of the healthy persons.
Comparative Example 2 in Table 9 indicates results of detecting the serum fucosylated PSA using AAL (AAL reaction values) in the subject samples A. Specifically, in Reference Example 1, AAL reaction values were measured in the same manner as in Reference Example 1 except that the biotin-labeled PhoSL was replaced with a biotin-labeled AAL. A standard cut-off value for the AAL reaction values was 894.8 U/mL. As in Example 2, an average value, a median value, a positive rate and a false positive rate were determined from the AAL reaction values.

[1] = Binding to sugar chains, summary of Tables 2 to 5; details: sugar chains No. 015, 201 to 203, and 401 to 418
Procedure: Details of the FAC method are described in Patent Document 2 filed by some of the present applicants, for example.
Binding constants (at 25° C.) of PhoSL, SRL, NSL and LSL belonging to the fucose α1→6 specific lectin for various sugar chains are shown in Tables 2 to 5.
The AAL and AOL bind to the fucose α1→6 sugar chains (sugar chains No. 015, 201 to 203, and 401 to 418), as well as to the glycolipid-type sugar chain excluding the fucose α1→6 (sugar chains No. 718, 722, 723, 727, 909, 910 and 933). The LCL and PSL bind to the fucose α1→6 sugar chain, as well as to sugar chain excluding the α1→6 fucose (sugar chains No. 003, and 005 to 014).
Furthermore, the binding constant of the fucose α1→6 specific lectin is not decreased even if a sialic acid is added to the fucose α1→6 sugar chain (sugar chains No. 601 and 602). In addition, the fucose α1→6 specific lectin also strongly binds to the triple-strand (sugar chains No. 407 to 413) and the four-strand (sugar chains No. 418) of the fucose uα1→6 sugar chain.

[2] = subject samples A, 7 healthy persons, pH 7.4
[3] = subject samples A, 9 patients, pH 7.4

B1: AAL: Aleuria aurantia lectin, has affinity for fucose α1→6 but is not specific; from J-OIL MILLS, Inc. (protein)
chain: PTEFLYTSKIAAISWAATGGRQQRVYFQDLNGKIREAQRGGDNPWTGGSSQNVIGEAKLFSPLAAVTWKSAQGIQIRVYCVNKDNILSEFVYDGSKWITGQLGSVGVKVGSNSKLAALQWGGSESAPPNIRVYYQKSNGSGSSIHEYVWSGKWTAGASFGSTVPGTGIGATAIGPGRLRIYYQATDNKIREHCWDSNSWYVGGFSASASAGVSIAAISWGSTPNIRVYWQKGREELYEAAYGGSWNTPGQIKDASRPTPSLPDTFIAANSSGNIDISVFFQASGVSLQQWQWISGKGWSIGAVVPTGTPAGW
Serum fucosylated PSA; serum of Healthy 1, pH in lectin reaction 7.4
  lectin reaction value B of Healthy 1: 1099.6 U/mL
Serum fucosylated PSA; serum of Healthy 2, pH in lectin reaction 7.4
  lectin reaction value of Healthy 2: 854.6 U/mL
Serum fucosylated PSA; serum of Healthy 3, pH in lectin reaction 7.4
  lectin reaction value of Healthy 3: 1062.7 U/mL
Serum fucosylated PSA; serum of Healthy 4, pH in lectin reaction 7.4
  lectin reaction value of Healthy 4: 115.0 U/mL
Serum fucosylated PSA; serum of Healthy 5, pH in lectin reaction 7.4
  lectin reaction value of Healthy 5: 32.3 U/mL
Serum fucosylated PSA; serum of Healthy 6, pH in lectin reaction 7.4
  lectin reaction value of Healthy 6: 1193.1 U/mL
Serum fucosylated PSA; serum of Healthy 7, pH in lectin reaction 7.4
  lectin reaction value of Healthy 7: 1028.8 U/mL
Serum fucosylated PSA; serum of Prostate cancer 1, GS 4 (2 + 2), pH in lectin reaction 7.4
  lectin reaction value of Prostate cancer 1: 831.2 U/mL
Serum fucosylated PSA; serum of Prostate cancer 2, GS 5 (2 + 3), pH in lectin reaction 7.4
  lectin reaction value of Prostate cancer 2: 1032.3 U/mL
Serum fucosylated PSA; serum of Prostate cancer 3, GS 6 (3 + 3), pH in lectin reaction 7.4
  lectin reaction value of Prostate cancer 3: 1152.7 U/mL
Serum fucosylated PSA; serum of Prostate cancer 4, GS 6 (3 + 3), pH in lectin reaction 7.4
  lectin reaction value A of Prostate cancer 4: 926.5 U/mL
Serum fucosylated PSA; serum of Prostate cancer 5, GS 7 (3 + 4), pH in lectin reaction 7.4
  lectin reaction value of Prostate cancer 5: 1025.0 U/mL
Serum fucosylated PSA; serum of Prostate cancer 6, GS 7 (3 + 4), pH in lectin reaction 7.4
  lectin reaction value of Prostate cancer 6: 961.5 U/mL
Serum fucosylated PSA; serum of Prostate cancer 7, GS 8 (3 + 5), pH in lectin reaction 7.4
  lectin reaction value of Prostate cancer 7: 1211.9 U/mL
Serum fucosylated PSA; serum of Prostate cancer 8, GS 8 (4 + 4), pH in lectin reaction 7.4
  lectin reaction value of Prostate cancer 8: 1010.0 U/mL
Serum fucosylated PSA; serum of Prostate cancer 9, GS 8 (4 + 4), pH in lectin reaction 7.4
  lectin reaction value of Prostate cancer 9: 988.1 U/mL
Serum fucosylated PSA; [2]
  reaction value, Healthy person group, Average value: 769.4 U/mL
  reaction value, Healthy person group, Median value: 1028.8 U/mL
Serum fucosylated PSA; [3]
  reaction value, Prostate cancer patient group, Average value: 1015.5 U/mL
  reaction value, Prostate cancer patient group, Median value: 1010.0 U/mL
Serum fucosylated PSA; subject samples A, n 2, pH 7.4
  reaction value, GS6, Mean value: 1039.6 U/mL
  reaction value, GS6, Median value: 1039.6 U/mL
  reaction value, GS7, Mean value: 993.3 U/mL
  reaction value, GS7, Median value: 993.3 U/mL
  reaction value, Negative (GS5 or less), Mean value: 931.8 U/mL
  reaction value, Negative (GS5 or less), Median value: 931.8 U/mL
Serum fucosylated PSA; subject samples A, n 3, pH 7.4
  reaction value, GS8 or more, Mean value: 1070.0 U/mL
  reaction value, GS8 or more, Median value: 1010.0 U/mL
[1]
  binding to the fucose α1→6 sugar chains (in words): bind
